From patent US20230037815A1

Target: cynomolgus CD19 (cynomolgus)
Experiment: Octet HTX (ForteBio), IgG on AHC sensor, 1:1 fit

- Kd: 1.3 nM
- koff: 0.000295 s⁻¹
B1: CNG-CD19-702 (antibody, V domains shown)
VH: QVQLQESGPGLVKPSQTLSLTCTVSGGSTSTSGMGVSWIRQHPGKGLEWIGHIWWDDDKRYNPVLKSRVTISVDTSKNQFSLKLSSVTAADTAVYYCARMELWSYYFDPWGQGTLVTVSS
VL: EIVLTQSPATLSLSPGERATLSCSASSSVSYMHWYQQKPGQAPRLLIYDTSKLASGIPARFSGSGSGTDFTLTISSLEPEDFAVYYCFQGSVYPFTFGQGTKLEIK
